Laboratory results taken from patent US20190175754A1 (UNIVERSITY OF CINCINNATI, published 2019).

Experiments:
[1] = target: FLT3 on the surface of MONOMAC-6 cells (FLT3-overexpressing AML cell line) (human) (UniProt P36888); experiment: flow cytometry of Cy5.5+ MONOMAC-6 cells, 50 nM Cy5.5-conjugated nanoparticles, 1 h; negative control conjugate (background uptake)
[2] = target: T1, FLT3 on the surface of MONOMAC-6 cells (FLT3-overexpressing AML cell line) (human, UniProt P36888 27-993); experiment: flow cytometry of Cy5.5+ MONOMAC-6 cells after 24 h treatment with Cy5.5-conjugated nanoparticles, compared with G7-FLT3L
T1 construct: whole, on cells; Endogenous receptor on a cell line; also called FMS-like tyrosine kinase 3; FLT3 receptor
T1 sequence (looked up): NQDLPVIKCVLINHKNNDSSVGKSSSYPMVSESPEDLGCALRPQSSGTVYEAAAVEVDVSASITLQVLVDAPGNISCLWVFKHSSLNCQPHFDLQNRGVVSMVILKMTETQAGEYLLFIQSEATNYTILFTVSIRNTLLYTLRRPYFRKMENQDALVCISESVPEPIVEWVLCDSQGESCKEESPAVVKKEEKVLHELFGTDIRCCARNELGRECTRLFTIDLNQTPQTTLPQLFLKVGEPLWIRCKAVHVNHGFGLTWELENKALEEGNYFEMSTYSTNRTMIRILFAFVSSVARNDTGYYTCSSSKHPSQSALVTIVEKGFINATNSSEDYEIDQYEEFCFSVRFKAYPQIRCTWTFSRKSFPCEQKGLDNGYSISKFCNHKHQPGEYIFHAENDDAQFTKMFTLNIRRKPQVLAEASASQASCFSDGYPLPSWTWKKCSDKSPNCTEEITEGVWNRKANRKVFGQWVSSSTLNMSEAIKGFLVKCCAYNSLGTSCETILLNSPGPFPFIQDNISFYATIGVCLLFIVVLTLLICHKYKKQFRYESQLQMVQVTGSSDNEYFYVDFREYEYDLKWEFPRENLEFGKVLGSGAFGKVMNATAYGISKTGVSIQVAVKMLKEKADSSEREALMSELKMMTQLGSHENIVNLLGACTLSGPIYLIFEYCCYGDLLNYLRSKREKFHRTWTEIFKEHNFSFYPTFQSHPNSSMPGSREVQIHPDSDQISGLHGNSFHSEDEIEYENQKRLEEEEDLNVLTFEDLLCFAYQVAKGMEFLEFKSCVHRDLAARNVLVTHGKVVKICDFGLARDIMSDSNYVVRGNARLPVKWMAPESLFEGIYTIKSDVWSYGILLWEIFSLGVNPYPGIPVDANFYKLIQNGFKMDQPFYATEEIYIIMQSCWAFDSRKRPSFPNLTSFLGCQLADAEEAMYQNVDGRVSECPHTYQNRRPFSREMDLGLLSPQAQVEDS

[3] = target: T1, FLT3 on the surface of MONOMAC-6 cells …; experiment: flow cytometry uptake by FLT3-overexpressing AML cells, against control protein conjugated nanoparticles
Protocol: FIG. 2(B) MONOMAC-6 cells were treated with Cy5.5-conjugated G7-FLT3L or G7-H2B nanoparticles for 24 hrs at the indicated doses. The proportion of Cy5.5⁺ cells were detected through flow cytometry analysis. FIG. 2(C) MONOMAC-6 and U937 cells were treated with 50 nM Cy5.5-conjugated G7-FLT3L or G7-H2B nanoparticles for 1 hr. The proportion of Cy5.5⁺ cells were detected through flow cytometry analysis. FIG. 2(D) MONOMAC-6 cells transfected with MSCV-PIG-miR-150 (miR-150-PIG) or MSCV-PIG (PIG) were treated with 50 nM Cy5.5-conjugated G7-FLT3L or G7-H2B nanoparticles for 1 hr. The proportion of Cy5.5⁺ cells were detected through flow cytometry analysis. Each experiment was repeated independently for at least three times. Average levels of at least three replicates are shown. FIG. 2(E) Cell viability (left panel) and apoptosis (right panel) of MONOMAC-6 cells treated with PBS (Ctrl), 50 nM G7-FLT3L or G7-H2B nanoparticles for 48 hr. *, P<0.05; **, P<0.01. […]

[4] = target: T1, FLT3 on the surface of MONOMAC-6 cells …; experiment: flow cytometry of Cy5.5+ MONOMAC-6 cells, 50 nM Cy5.5-conjugated nanoparticles, 1 h
Description: FIG. 2(A) G7-NH₂ PAMAM dendrimers were first conjugated with the near-infrared dye Cy5.5 using an N-hydroxysuccinimide ester linker sulfo-SMCC. Next, the fluorescently-tagged G7-NH₂ (G7-Cy5.5) was conjugated to human recombinant FLT3L (i.e., the soluble FLT3L form with 155 amino acids; ProSpec-Tany Technogene Ltd., East Brunswick, N.J.) at a 1:2 ratio using the heterofunctional linker sulfosuccinimidyl 4-((N-maleimidomethyl) cyclohexane-1-carboxylate) (sulfo-SMCC), resulting in the G7-FLT3L conjugates. FIG. 2(B) MONOMAC-6 cells were treated with Cy5.5-conjugated G7-FLT3L or G7-H2B nanoparticles for 24 hrs at the indicated doses. The proportion of Cy5.5⁺ cells were detected through flow cytometry analysis. FIG. 2(C) MONOMAC-6 and U937 cells were treated with 50 nM Cy5.5-conjugated G7-FLT3L or G7-H2B nanoparticles for 1 hr. The proportion of Cy5.5⁺ cells were detected through flow cytometry analysis. FIG. 2(D) MONOMAC-6 cells transfected with MSCV-PIG-miR-150 (miR-150-PIG) or MSCV-PIG (PIG) were treated with 50 nM Cy5.5-conjugated G7-FLT3L or G7-H2B nanoparticles for 1 hr. The proportion of Cy5.5⁺ cells were detected through flow cytometry analysis. Each experiment was repeated independently for at least three times. Average levels of at least three replicates are shown. […]

Molecule: G7-H2B dendrimers (Cy5.5-labelled G7 PAMAM dendrimer conjugated to histone H2B, negative control)
- uptake ratio (proportion of Cy5.5+ cells) [1]: 5.9%

B1: G7-Flt3L dendrimers (Cy5.5-labelled G7 PAMAM dendrimer conjugated to the synthetic 74-amino acid mouse Flt3L peptide) (peptide)
peptide: SSNFKVKFRELTDHLLKDYPVTVAVNLQDEKHCKALWSLFLAQRWIEQLKTVAGSKMQTLLEDVNTEIHFVTSC
modifications: conjugated to a Cy5.5-labelled G7 PAMAM dendrimer; attachment residue not stated
notes: also called G7-Flt3L nanoparticles; engineered mouse Flt3L peptide
- binding result [2]: binds

B2: G7-FLT3L dendrimers (Cy5.5-labelled G7 PAMAM dendrimer conjugated to human recombinant soluble FLT3L) (ligand, UniProt P49771 27-184, looked up)
chain: TQDCSFQHSPISSDFAVKIRELSDYLLQDYPVTVASNLQDEELCGGLWRLVLAQRWMERLKTVAGSKMQGLLERVNTEIHFVTKCAFQPPPSCLRFVQTNISRLLQETSEQLVALKPWITRQNFSRCLELQCQPDSSTLPPPWSPRPLEATAPTAPQP
modifications: conjugated through the sulfo-SMCC linker to a Cy5.5-labelled G7 PAMAM dendrimer (approximately 0.5-1 FLT3L molecules per dendrimer); attachment residue not stated
notes: extracellular domain; The protein is carried on a G7 PAMAM dendrimer labelled with Cy5.5; also called G7-FLT3L nanoparticles; G7-FLT3L conjugates
- fold specificity and efficiency in targeting and uptake against nanoparticles conjugated with control proteins [3]: 4 times
- uptake ratio (proportion of Cy5.5+ cells) [4]: 23.6%
